In the nanobody polyreactivity screen of Harvey et al. (2022):

Assay: yeast display, Sf9 membrane polyspecificity reagent, FACS + sequencing; frameworks hold sequencing errors
How it was run: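 A synthetic nanobody library was expressed on Saccharomyces cerevisiae BJ5465 by galactose induction for 36–48 hours. The library was stained for 1 hour at 4 °C with 10% biotinylated, detergent-solubilized Sf9 membrane reagent and enriched with streptavidin microbeads before FACS. Low and high (top ~1%) gates were set on anti-HA fluorescence for expression and streptavidin fluorescence for reagent binding, and each polyreactivity label reflects the gate of origin.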

| Sequence | polyreactivity (PSR sort gate) |
| --- | --- |
| QVQLVESGGGLVQAGGILRLSCAASGRTFDSNAMGWYRQAPGKERELVAAISWSGGSTYYADSVKGRFTISRDNAKNTVYLQMNSLKPEDTAVYYCNRLGRHAPATRYGYWGQGTQVTVSS | high polyreactivity |
| QVQLVESGGGLVQAGGILRLSCAASGRTFGLYAMGWYRQAPGKERELVAAISWGGGRTYYADSVKGRFTISRDNAKNTVDLQMNSVKPEYTAVYYCNAVYSPRYYVGGYDYWGQGTHVTVSS | high polyreactivity |
| QVQLVESGGGLVQAGGILRLSCAASGRTFGRNAMGWYRQAPGKERELVARITSGGSTSYADSVKGRFTISRDNAKNTVYLQMNSLKPEDTAVYYCAKGSYGVAYFTHTARYYGGYEYWGQGTQVTVSS | high polyreactivity |
| QVQLVESGGGLVQAGGILRLSCAASGRTFMYYAMGWYRQAPGKDMELVAAIRRGSSTYYADSVKGRFTISRDNAKYSVYLQMNSLKPEDTAVYYCAARGRYRIGQGRYGKRYDYWGHGTQVTVSS | high polyreactivity |
| QVQLVESGGGLVQAGGILRLSCAASGRTIYYYAMGRYRQAPRKERELVASISWSGGSTYYADSVKGRFTISRDNAKNTVYLQMNSLKPEDTAVSYCNAQYHTYRWLYAVYLSGDYWGQGTQVTVSS | low polyreactivity |
| QVQLVESGGGLVQAGGILRLSCAASGSIFAGYAMGWYRQAPGKERELVAVITWRTDITYADSVKGRFTISRDNAKNTDYLHMNSLKPDDTAVYYCAADSDSTTRLFGDEYWGQGTQVTVSS | low polyreactivity |
| QVQLVESGGGLVQAGGILRLSCAASGSIFDVYAMGWYRQAPGKERELVAAISRSGGRTYYADSVKGRFTISRDNAKNRVYLQMNSLKPEDTAVYYCATYPCNWDLDYWGHGTQVTVSS | high polyreactivity |
| QVQLVESGGGLVQAGGILRLSCAASGSIFLYNALGWYRQAPGKERELVAAISKSGGSTYYADSVKGRFTISRDNAKNTVYLQMNSLKPEDTAVYYCAAGYGRLIRYGSDYDYWGQGTQVTVSS | low polyreactivity |
| QVQLVESGGGLVQAGGILRLSCAASGSIFSGNDMGWYRQAPGKERELVASINRSGGSTNYAVSVKGRFTISRDNAKNTVYLQMNSLKPEDTAVYYCARDFSFLGNASARLDYDYWGQGSQVTVSS | low polyreactivity |
| QVQLVESGGGLVQAGGILRLSCAASGSIFVGNAMGGYRQAPGKERELVATISWSGGSTYYADSVKGRFTISRDNAKNTVYLQMNCLKPEDSAVYYCAKTPYRRYRYGGYTYRTYDYWGQGTQVTVSS | low polyreactivity |
| QVQLVESGGGLVQAGGILRLSCAASGSIVTDNAMGWYRQAPGKERELVAAITSSGNTNYADSVKGRFTISRDNAKNTVYLQINSLKPEDTAVYYCAADSYYKHWTDWLPVGEDYWGQGTQVTVSS | low polyreactivity |
| QVQLVESGGGLVQAGGILRLSCAASGSTFTGYAMGWYRQAPGKERELVAAISSSGGRTYYAASVKGRFTISRDNANNTVYLQMNSLKPEVTAVYYCATDHYRYGGYSWGQGTEVTVSS | high polyreactivity |
| QVQLVESGGGLVQAGGILRLSCAASGSTFVRYVMVWYRQAPGKERELVAAISRRGGSTYYADSVKGRFTISRDNAKNTVYLQMNSLKPEDTAVNYCARTVGYRTLLESDSWGQGTQVTVSS | high polyreactivity |
| QVQLVESGGGLVQAGGILRLSCAASGSTFYSYAMGWYRQAPGKERELVAYIDWSGGYTYYADSVKGRFTISRDNAKNTVYLQMNSLKPEDTAVYYCNAERGATGYYVTGDDYWGQGTQVTVSS | low polyreactivity |
| QVQLVESGGGLVQAGGILRLSCASSGRIFTFYAMGWYRQAPGKERELVAAISSGGSTYYADSVKGLFTISRDNAKNTVYLQMNSLKPEDTAVYYCAAEPVWYADYDYWGQGTQVTVSS | low polyreactivity |
| QVQLVESGGGLVQAGGILRLSCPASGSIIVFYAMGWYRQAPGKEREIVATITWSGTSTYYADSVKGRFTISRDYAKNTVYLQKNSLKPEDTAVYYCNARTVKASYVGYNYWGQGTQVTVSS | high polyreactivity |
| QVQLVESGGGLVQAGGILRLSCSASGYISKVYVMGWYRQAPGKERELVAAITNGGRTNYADSVKGRFTISRDNAKNTVYLQMNSLKPEDTAVYYCAARPRWHIRYNYWGQGTQVTVSS | high polyreactivity |
| QVQLVESGGGLVQAGGILRLSFAASGFISLDYAMGWYRQAPGKERELVAAISNGGGTNYADSVKGRFTISRDNAKNTVYLQMNSLKPEDTAVYYCNASVSYGYEYDSWGQGTQVTVSS | low polyreactivity |
| QVQLVESGGGLVQAGGILRLSSAASGFTFGYYAMGWYRQAPGTQRELVAAINWSGGRTYYADSVKGRFTISRDNAKNTVYLQMNSLKPEDTAVYYCAADPKKGRQMYYWGQGTQVTVSS | high polyreactivity |
| QVQLVESGGGLVQAGGILRLTCAASGRTFYKNAMGWYRQAPGKERELVAAIDWIDGNTYYADSVKGRFTISRDNAKNTVYLQMNSLKPEDTAVYYCAAEGYDLGDYWGQGTQVTVSS | low polyreactivity |
| QVQLVESGGGLVQAGGILSLSCAASGNTFKGNAMGWYRQAPGKERELVAAISWSTDSTYYADSVKGRFTISRDNAKNSVYLQMNSLKPEDTAIYYCAADYSHLPIAWYYYWGQGTQVTVSS | low polyreactivity |
| QVQLVESGGGLVQAGGMLRLSCAASGRIFGVNAMGWYRQAPGKERELVAVISSGGSTYYADSVKGRFTISRDNAKNTVYVQMNSLKPEDTAVYYCNAVVGRWFPYNLSDYWGQGTQVTVSS | low polyreactivity |

| Sequence | polyreactivity (PSR sort gate) |
| --- | --- |
| QVQLVESGGGLVQAGGNLRLSCAASGFIFTRNAMGWYRQAPGKERELVAAISTSGDRTYYADSVKGRFTISRDNAKNTVYLQMNSLKPEDTAVYYCAVVRPRYVVRYDYWGQGTQVNVSS | high polyreactivity |
| QVQLVESGGGLVQAGGRHRLSCAPSGSIFRFYVMGWYIQAPGKERELVAAISIGGSTNYADSVKGRFTISRDNAKNTVYLQMNSLKPEDSAVYYCAADGPTYWWTTQWYWGDYWGQGTQVTVSS | low polyreactivity |
| QVQLVESGGGLVQAGGRLRFSCADSGITFLRYAIGWSRQAPGKERELVAGISYTGGSTNYADSVKGRFTISRDNAKNTVYLQMNSLKPEDSSVYYCAAQGYRWYDYWGQGTQVTVSS | high polyreactivity |
| QVQLVESGGGLVQAGGRLRFTCAASGAIFHNYDMGGYRQATGKERQLVADISRGGDTNYADSVKGRFTISRDNAKNTVYLEMNSMKPEDTAVYYCNATYWILDSPWWRETFDYWGQGSQVTVSS | low polyreactivity |
| QVQLVESGGGLVQAGGRLRISCAASGRTFGRYTMGWYRQAPGKERELVASISNTARTNYADSVKGRFTISRDNAKNTVYLQMNSLKPEDTAVYYCAAERAILSSDKQSLWRFDYWGQGTQVTVSS | low polyreactivity |
| QVQLVESGGGLVQAGGRLRLICAASGRTFTPYAMGWYRQAPGKERELVAAITRGGSTYYADSVKGRFTISRDNAKNTVYLHMNSLKPEDTAVYYCNALVSYYKLSSEYDYWGQGTQVTVSS | high polyreactivity |
| QVQLVESGGGLVQAGGRLRLRCAASGSIFSPNAMGWYRQAPGKERELVATISFSGGRTYYADSVKGRFTISRDNAKNSVYLQMNSLKPEDTAVYYCAKAYYYTDMDYWGQGTQVTVSS | low polyreactivity |
| QVQLVESGGGLVQAGGRLRLSCAASGATFYVYAMGWYRQAPGKERELVATIDSTDGDTYADSVKGRCTISRDNAKKTVYLQMNSLKPEDTAGYDCAATDLNIYYGYYDSWYWYELDYWGQGTQVTVSS | high polyreactivity |
| QVQLVESGGGLVQAGGRLRLSCAASGFIFVRNAMGWYRQAPGKERELVAAISRGGGRTYYADSVKGRFTISRDNAKNTVYLQINRLKPEDTAVYYCNTQSVGVQFVKDNYWGQGTQVTVSS | high polyreactivity |
| QVQLVESGGGLVQAGGRLRLSCAASGFIFYDYAMGWYRQAPGKERELVAVITSGGSTYYADSVKGRFTISRDNAKNTVYLQMNSLKPEDTAVYYCNADWVFTWYDYPNDKYDYWGQGTQVTVSS | low polyreactivity |
| QVQLVESGGGLVQAGGRLRLSCAASGFIFYFYAMGWYRQAPGKERELVAAISWSGGSPYYADSVKGRFTISRDNAKNTVYLQMNSLKPEDTAVYYCAADTRTSYYNDDYDYWGQGTQVTVSS | low polyreactivity |
| QVQLVESGGGLVQAGGRLRLSCAASGFISKYYAMGWSRQAQGKERELVASISRDGSTSYADSVKGRFTISRDNAKNTVYIQMNSLKPEDTAVYYCAAPSYRTRYYYWGQGTQVTVSS | high polyreactivity |
| QVQLVESGGGLVQAGGRLRLSCAASGFIYRPYLMGWYRQATGKEMEFVAAISGRGGSTYYADSVKGRFTISRDNAKKTVYLQMNSLKPEDTAVYYCNAVYIYTGVGYNYWGQGTQVTVSS | high polyreactivity |
| QVQLVESGGGLVQAGGRLRLSCAASGFTFAYYAMGGNRQSPGKERELVAAISSGGGSTYYADSEKGRFTISRDNAKNTVYLQMNSQKPEDTAVYYCAAESCSPQAWFDYWGQGTQVTVSS | high polyreactivity |
| QVQLVESGGGLVQAGGRLRLSCAASGFTFDYNAMGWYIQAPGKEREFVASISVSGGSTYYADSVKGRFTISRDNAKNTVYLQMNSLKPEDTAVYYCAAELTGDGTLGYDFWGQGTQVTVSS | low polyreactivity |
| QVQLVESGGGLVQAGGRLRLSCAASGFTFVKNAMGWYRQAPGKERELVAAISSRGGSTYYADSVKGRFTISRDNAKNTVYLQMNSLKAEDTAVYYCATERERTMGYWGQGTQVTDSS | high polyreactivity |
| QVQLVESGGGLVQAGGRLRLSCAASGGIFDTYVMGRYRQAPGKERELVAGISSTGGSTYYADSVKGRFTISRDNAKNTVYLQMNSLKPEDTAVYYCNAEAGGFDYYGKTYRYGDYWGQGTQVTVSS | low polyreactivity |
| QVQLVESGGGLVQAGGRLRLSCAASGHIFWGYAMGWSRQAPGKERELVAAITSGGNTNYADSVKGRFTISRDNAKNTVYLQMNSLKPEDTAVYYCAKRTRPWRDFDYWGQGTQVTVSS | low polyreactivity |
| QVQLVESGGGLVQAGGRLRLSCAASGIIFGYYALGWYRQAPGKERELVAAISSGGTTSYADSVKGRFTISRDNAKNTDYLQMNSLKPEDTAVYYCAADYDAAWYKDGYYYWGQGTQVTVSS | low polyreactivity |
| QVQLVESGGGLVQAGGRLRLSCAASGIIFGYYAMGWYREAPGKEREFVAAINYSGVSTYYADSVKGRLTISRDNAKNTVYLQMNSLKPEDTAVYYCAADFRIVVYGWGGSHMDYWGQGTQVTVSS | low polyreactivity |
| QVQLVESGGGLVQAGGRLRLSCAASGIIFRGNPMGRYRQAPGKERELVAAIARRGGRTYYADSVKGRFTISRDNAKNTVYLQMNCLKAEDTAVYFCAAGELGDYWGQGTQVTVSS | high polyreactivity |
